Measured values: publication PMC3708844 (2013)

B1: SHI1 fused with the N-terminal portion of the luciferase [Arabidopsis thaliana] / FRY2/CPL1 fused with the C-terminal part of the luciferase [Arabidopsis thaliana] (parent complex)
chain 1: MERSRSKRNYHYDQDYDGDSMPRSKPRYNNNYHFGGGGGGNNRYRGGGGGGGGNGRPSKSHPETMATTTYRILCHDAKAGGVIGKSGTIIKSIRQHTGAWINVHELVPGDAERIIEISDNRRRDPDGRMPSFSPAQEALFSVHDRILESEAQFGYGGPPPEEEEDYGGVRPGGGRVVTRLVVSRMHVGCLLGKGGKIIEQMRIETKTHIRILPRESNLPRCVSLSEEIVQIVGELNAVKNALAIVSSRLRESQHRDRSNFQGRSHSPERSFAAAGDDYMPQLRRQSSDRFPRGNFRNNNFSSRQSNYAEEAPAVPVGENVYSEELVFQILCPADKIVRVVGESQGIIDLLQNEIGVDVRVSDPVAGSDEQIITISSEEAPDDPFFPAQEALLHIQTQIIDLIPDKDNLITTRLLVPSRDSICLEGKAGSVSEISRLTGTSVQILAREEIPRCASINDVVIQITGEIRAAREALVELTLLLRSHMFKELSQKETPPASTSTTGPLEGVAGVMEVASSNNTIQSREGPTSSNLNLQQVSTILPQFKEGFGSVAKAGESEHREEVPVTTSRMAVPLVTRSTLEVVLPEAVVPKLVTKSRNKLAQISEWSGASVTIVEDRPEETQNIIRISGTPEQAERAQSLLQGFILSIQEDGP
chain 2: MYSNNRVEVFHGDGRLGELEIYPSRELNQQQDDVMKQRKKKQREVMELAKMGIRISHFSQSGERCPPLAILTTISSCGLCFKLEASPSPAQESLSLFYSSCLRDNKTAVMLLGGEELHLVAMYSENIKNDRPCFWAFSVAPGIYDSCLVMLNLRCLGIVFDLDETLVVANTMRSFEDKIDGFQRRINNEMDPQRLAVIVAEMKRYQDDKNLLKQYIESDQVVENGEVIKVQSEIVPALSDNHQPLVRPLIRLQEKNIILTRINPMIRDTSVLVRMRPSWEELRSYLTAKGRKRFEVYVCTMAERDYALEMWRLLDPEGNLINTNDLLARIVCVKSGFKKSLFNVFLDGTCHPKMALVIDDRLKVWDEKDQPRVHVVPAFAPYYSPQAEAAATPVLCVARNVACGVRGGFFRDFDDSLLPRIAEISYENDAEDIPSPPDVSHYLVSEDDTSGLNGNKDPLSFDGMADTEVERRLKEAISASSAVLPAANIDPRIAAPVQFPMASASSVSVPVPVQVVQQAIQPSAMAFPSIPFQQPQQPTSIAKHLVPSEPSLQSSPAREEGEVPESELDPDTRRRLLILQHGQDTRDPAPSEPSFPQRPPVQAPPSHVQSRNGWFPVEEEMDPAQIRRAVSKEYPLDSEMIHMEKHRPRHPSFFSKIDNSTQSDRMLHENRRPPKESLRRDEQLRSNNNLPDSHPFYGEDASWNQSSSRNSDLDFLPERSVSATETSADVLHGIAIKCGAKVEYKPSLVSSTDLRFSVEAWLSNQKIGEGIGKSRREALHKAAEASIQNLADGYMRANGDPGPSHRDATPFTNENISMGNANALNNQPFARDETALPVSSRPTDPRLEGSMRHTGSITALRELCASEGLEMAFQSQRQLPSDMVHRDELHAQVEIDGRVVGEGVGSTWDEARMQAAERALSSVRSMLGQPLHKRQGSPRSFGGMSNKRLKPDFQRSLQRMPSSGRYS

Variants of: B1
Experiment: split-luciferase complementation assay; co-expressed in Arabidopsis protoplasts; means ± SE (n = 3); parent: 160; read off a plot

response	Variant
~110 RLU	chain 1 E389K
